Here are results for eleven molecules from patent US20250340659A1 (PETMEDIX, published 2025).

T1: canine OX40L, full length membrane form, expressed on HEK293 cells (canine)
T1 construct: also called OX40L expressing HEK; HEK OX40L cells
T1 chain: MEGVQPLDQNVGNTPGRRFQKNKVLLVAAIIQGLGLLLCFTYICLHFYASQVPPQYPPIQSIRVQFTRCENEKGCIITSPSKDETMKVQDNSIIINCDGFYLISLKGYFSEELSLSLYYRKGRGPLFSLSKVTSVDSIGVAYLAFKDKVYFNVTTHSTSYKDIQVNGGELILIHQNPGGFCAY

T2: recombinant canine OX40L ECD-TNCc-HIS protein (canine)
T2 construct: also called Trimeric OX40L probe (HIS tag); trimeric canine OX40L
T2 chain: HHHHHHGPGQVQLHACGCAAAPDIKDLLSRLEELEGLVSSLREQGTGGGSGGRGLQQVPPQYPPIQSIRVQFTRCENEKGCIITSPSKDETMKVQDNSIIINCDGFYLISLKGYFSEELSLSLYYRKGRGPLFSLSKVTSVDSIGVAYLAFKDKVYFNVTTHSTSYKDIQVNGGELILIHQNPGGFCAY

B1: PMX029 (antibody, V domains shown)
VH: EVQLVESGGDLVKPGGSLRLSCVASGFTFSSYHMNWVRQAPGKGLQWVAYINTGGSRTSYADAVKGRFTISRDNAKNTLYLQMNSLRAEDTAVYYCANNYWDNFDSWGQGTLVTVSS
VL: SYELTQPPSVNVTLRETAHITCGGDSIGSKYVQWIQQNPGQAPVVIIYKDTNRPTGIPERFSGANSGNTATLTISGALAEDEADYYCQVGDSGTKASVFGGGTHLTVL
notes: also called PMX29
B2: PMX154 (antibody, V domains shown)
VH: EVQLVESGGDLVKPEGSLRLSCVVSGFTFSGFDMSWVRQAPGKGLQWVAYISTDGRSTGYTDAVKGRFTISRDNVKNTLYLQMNSLRTEDTAVYYCAKETRHWGFDYWGQGTLVIVSS
VL: SYVLTQLSSVSVSLRQTAHITCGGDSIGRKNVYWHQQKLGRAPILIIYDDSSRPSGIPERFSGANSGNTATLTISGALAEDEAAYYCQVWDSSTSVFGGGTHLTVL
B3: PMX030 (antibody)
heavy: EVQLVESGGDLVKPGGSLRLSCVASGFTFSNYHMNWVRQAPGKGLQWVAYVVSGGSTTSYADAVKGRFTISRDNAKNTLYLQMNSLRAEDTAVYYCAKGTSSWGVPMDYWGHGTSLFVSSASTTAPSVFPLAPSCGSTSGSTVALACLVSGYFPEPVTVSWNSGSLTSGVHTFPSVLQSSGLYSLSSMVTVPSSRWPSETFTCNVAHPASKTKVDKPVPKRENGRVPRPPDCPKCPAPESLGGPSVFIFPPKPKDTLLIARTPEVTCVVVDLGREDPEVQISWFVDGKQMQTAKTQPREEQFNGTYRVVSVLPIGHQDWLKGKQFTCKVNHIGLPSPIERTISKARGQAHQPSVYVLPPSREELSKNTVSLTCLIKDFFPPDIDVEWQSNGQQEPESKYRTTPPQLDEDGSYFLYSKLSVDKSRWQRGDTFICAVMHEALHNHYTQKSLSHSPGK
VL: B2 VL with S8P, S13T, H19R, G28R, R29S, H35Y, R41Q, I44V, A84D
notes: also called PMX30
B4: PMX031 (antibody)
heavy: B3 heavy with S56T, S59T, S102T
VL: B2 VL with S8P, S13T, H19R, G28R, R29S, H35Y, Q37K, R41Q, I44V, A84D
notes: also called PMX31
B5: PMX026 (antibody, V domains shown)
VH: EVHLVESGGDLVKPGGSLRLSCVASGFTFSSYHMSWVRQAPGKGLQWVAFINAGEISTNYADAVKGRFTISRDNAKNILYLQMNSLRAEDTAVYYCASGHIWIRPFDYWGQGTLVTVSS
VL: SYVLTQLPSMSVTLRQTARITCEGDSIGRKRVNWYQQKLGQVPVLIIYDDDSRPSGIPERFSGANSGNTATLTISGALAEDEAEYYCQVWDSSNNWVFGEGTQLTVL
notes: also called PMX26
B6: PMX155 (antibody, V domains shown)
VH: ELHLVESGGDLVKPAGSLRLSCVASGFTFSSFRMSWVRQSPGKGLQFVAGINSDGYNTQYRDDVKGRFTISRDNTEKTLYLQMNNLRVEDTAMYYCVKDQGSWGGNFDFWGQGTLVTVSS
VL: SYGLTQPPSVNVTLRETAHITCGGDSIGSKYVQWIQQIPGQAPVVIIYKDRNRPTGIPERFSGANSGNTATLTISGALAEDEADYYCQVGDSGTSVFGGGTHLTVL
B7: PMX156 (antibody, V domains shown)
VH: B6 VH with H3Q, S31N, S40A, N57S, F109Y
VL: B6 VL
B8: PMX293 (antibody, V domains shown)
VH: EVRLLESGGDLVKPAGSLRLSCAVSGFTFSTYDMSWVRQAPGKGLQWVAYITYDGRTTSYTDTVKGRFTVSRDNAKNMLYLKMNSLRSEDAAVYYCAKAHRGWFFDHWGQGTLVTVSS
VL: SYVLTQLPSVSVTLRQTARITCGGDSIGSKNVYWYQQKLGQAPVLIIYDDTSRPSGIPERFSGANSGTTATLTISGALAEDEADYYCQVWDSSTGVFGGGTHLTVL
B9: PMX035 (antibody, V domains shown)
VH: EVQLVESGGDLVKPGGSLRLSCVASGFTFSNFEMYWVRQAPGKGLEWVARIYKSGSTTYHSERVKGRFTISKDSATNMAFLQMNSLRAEDTAVYYCTSASSTGWRFDYWGQGTLVTVSS
VL: B8 VL with S29R, Y33C, Y35F, T51N, T68N, V96I
notes: also called PMX35
B10: PMX294 (antibody, V domains shown)
VH: EVQLVESGGDLVKPEGSLRLSCAVSGFTFSSNDMSWVRQAPGKGLQWVAYITYDGRSTSYTDIVKGRFTVSRDNAKNTLYLQMNSLRSEDAAVYYCAKAQRGWFFDYWGQGTLVTVSS
VL: B8 VL with T51D, F61I, T68N
B11: PMX040 (antibody, V domains shown)
VH: B9 VH with K53E, S56T, S61A, R63G, S74N, A75V, T76K, F80Y, T102S, G103S
VL: B8 VL with S29R, Y33C, Y35F, V44I, T51S, T68N, V96I
notes: also called PMX40

Positions count from the first letter of the chain named.

For one assay, the target named is T1, canine OX40L, full length membrane …. Briefly: flow cytometry, OX40L HEK minus WT HEK. In outline: (§1)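 CHO supernatants at 1, 5 or 10 μg/ml in PBS/3% FBS incubated 30′ on ice with cells surface-expressing canine OX40L. Bound antibody detected with fluorescent anti-canine Fc secondary (1:1000, 30 min, dark) and measured by flow cytometry, with parental WT HEK signal subtracted where stated.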
On to B1, for which the GEO mean difference turned out to be 1.06e+06.
On the same count and under the same terms, as for B2, the figure is 781000.
On the same count and under the same terms, as for B3, the figure is 1.39e+06; as for B4, 1.51e+06.
On to B5, for which the GEO mean difference came to 1.36e+06.
The same measure, in the same setting: the value for B6 was 730000; that for B7 was 672000; that for B8 was 598000.
On to B9, for which the GEO mean difference stood at 1.38e+06.
Same read-out and setting: as for B10, the figure is 591000; as for B11, 1.15e+06.

In another assay the target is T2, recombinant canine OX40L ECD-TNCc-HIS …. The assay can be described thus: SPR Koff (kd2). The gist of the method: (§2)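 Purified antigen amine-coupled at low density to a CM5 chip; candidate antibodies injected as analyte over a concentration range. Kinetic curves fitted with a bivalent analyte model to give functional affinity and dissociation rates.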
With B1, the koff amounted to 0.000779 s⁻¹.
Still for that read-out and setting: as for B2, the figure is 6.94 s⁻¹; as for B3, 0.000924 s⁻¹.
Turning to B4, the off-rate (koff) was determined as 0.000606 s⁻¹.
For B5, the dissociation rate constant (koff) came out at 0.00131 s⁻¹.
For the molecule B6, the off-rate constant (koff) was determined as 0.000294 s⁻¹.
Regarding B7, the dissociation rate constant (koff) was determined as 0.000238 s⁻¹.
The same measure, in the same setting: as for B8, the figure is 145 s⁻¹; as for B9, 0.000498 s⁻¹.
Take B10: the koff was 2.69 s⁻¹.
Consider B11, for which the koff was 0.436 s⁻¹.

In the next assay the target is T1, canine OX40L, full length membrane …. The assay can be described thus: flow cytometry. The gist of the method:
as §1
For orientation: A flow cytometer gives signals particle by particle.
Take B1: the “GEO mean OX40L expressing HEK” value worked out at 1.09e+06.
As to B2, the “GEO mean OX40L expressing HEK” value was determined as 789000.
The same measure, in the same setting: the value for B3 was 1.42e+06.
On the same count and under the same terms, the value for B4 was 1.55e+06; that for B5 was 1.39e+06; that for B6 was 738000.
The same measure, in the same setting: the value for B7 was 680000; that for B8 was 602000; that for B9 was 1.41e+06.
As for B10, the “GEO mean OX40L expressing HEK” value was determined as 595000.
On the same count and under the same terms, the value for B11 was 1.18e+06.

Another assay has the same target. Briefly: cell-based or functional assay.
Turning to B1, the “% Signal Inhibition Average” value is 69.4%, the “% Signal Inhibition Rep1” value came to 75.8%, the “% Signal Inhibition Rep2” value was determined as 76.2% and the “% Signal Inhibition Rep3” value is 56%.
Regarding B2, the “% Signal Inhibition Average” value stood at 63.7%, the “% Signal Inhibition Rep1” value is 62.6%, the “% Signal Inhibition Rep2” value is 77.2% and the “% Signal Inhibition Rep3” value turned out to be 51.5%.
B3: the “% Signal Inhibition Average” value amounted to 65.6%, the “% Signal Inhibition Rep1” value was determined as 70.6%, the “% Signal Inhibition Rep2” value came to 83.9% and the “% Signal Inhibition Rep3” value came out at 42.3%.
Consider B4, for which the “% Signal Inhibition Average” value turned out to be 78.4%, the “% Signal Inhibition Rep1” value amounted to 83.5%, the “% Signal Inhibition Rep2” value is 89.1% and the “% Signal Inhibition Rep3” value came out at 62.7%.
On the same counts, the results for B5 are 67.1%, 67.6%, 65.1% and 68.7%.
On the same counts, the results for B6 are 32.7%, 19.9%, 37.4% and 40.9%.
The matching figures for B7: 35.1%, 21.6%, 34.5% and 49.1%.
Consider B8, for which the “% Signal Inhibition Average” value came out at 73.7%, the “% Signal Inhibition Rep1” value amounted to 81.6%, the “% Signal Inhibition Rep2” value came out at 77.5% and the “% Signal Inhibition Rep3” value was determined as 62.1%.
On the same counts, the results for B9 are 73.5%, 85.3%, 67.4% and 67.8%.
On to B10, for which the “% Signal Inhibition Average” value was determined as 78.6%, the “% Signal Inhibition Rep1” value came to 94%, the “% Signal Inhibition Rep2” value was 88.7% and the “% Signal Inhibition Rep3” value amounted to 53%.
On to B11, for which the “% Signal Inhibition Average” value stood at 77.1%, the “% Signal Inhibition Rep1” value came out at 75.4%, the “% Signal Inhibition Rep2” value stood at 84.2% and the “% Signal Inhibition Rep3” value worked out at 71.8%.

A further assay has as its target T2, recombinant canine OX40L ECD-TNCc-HIS …. The assay can be described thus: SPR KD1, bivalent analyte model. In outline: as §2
As to B1, the Kd came to 51.6 nM.
Same read-out and setting: the value for B2 was 15.6 nM; that for B3 was 114 nM; that for B4 was 154 nM.
On the same count and under the same terms, the value for B5 was 903 nM; that for B6 was 90.6 nM; that for B7 was 1980 nM.
B8: the Kd worked out at 1 nM.
Still for that read-out and setting: the value for B9 was 269 nM.
The same measure, in the same setting: as for B10, the figure is 14.4 nM; as for B11, 1.26 nM.

The target is the same in the next assay. The assay can be described thus: SPR Koff (kd1). The gist of the method: as §2
As for B1, the koff was 0.0294 s⁻¹.
The same measure, in the same setting: the value for B2 was 0.00384 s⁻¹.
For B3, the koff turned out to be 0.0283 s⁻¹.
For B4, the koff is 0.0124 s⁻¹.
Consider B5, for which the off-rate constant (koff) was 0.00191 s⁻¹.
Still for that read-out and setting: the value for B6 was 0.032 s⁻¹; that for B7 was 0.102 s⁻¹; that for B8 was 0.000387 s⁻¹.
On to B9, for which the koff amounted to 0.0311 s⁻¹.
On the same count and under the same terms, as for B10, the figure is 0.00155 s⁻¹.
Still for that read-out and setting: the value for B11 was 0.000748 s⁻¹.

What is called koff is the rate constant with which the complex falls apart.
